T1: human oxyntomodulin (53-89) (human)
T1 construct: also called synthetic human oxyntomodulin
T1 peptide: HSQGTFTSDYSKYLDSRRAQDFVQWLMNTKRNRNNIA


Molecular target: T1, human oxyntomodulin (53-89)
Assay: SPR (Biacore T100), antibody captured by anti-mouse IgG, oxyntomodulin 1.1-90 nmol/L as analyte, 1:1 model
Method: Kinetic analysis and binding specificity of the N-Terminal Antibody and the C-Terminal Antibody are determined by surface plasmon resonance using Biacore T100 (GE Healthcare Life Sciences). Goat anti-mouse IgG antibody (Southern Biotech) is immobilized on a Series S CM5 sensor chip and used to capture approximately 1500 response units of anti-oxyntomodulin IgG. Binding to duplicate injections of various concentrations of human oxyntomodulin (SEQ ID NO: 25) (1.1 to 90 nmol/L) diluted in running buffer (HEPES buffered saline containing 3 mmol/L EDTA and 0.05% Tween) and 22.5 nmol/L of either human glicentin span (49-89) (SEQ ID NO: 29) or human glucagon (53-81) (SEQ ID NO: 30) peptides are measured with a flow rate of […]. Kinetic constants are determined using 1:1 binding model with the T100 Evaluation software.
Using Biacore analysis of the N-Terminal Antibody, the equilibrium dissociation constant is 1.5×10⁻¹⁰ mol/L (Table 2).

Binder | Kd [nM] | koff [s⁻¹] | kon [M⁻¹ s⁻¹]
Anti-Human Oxyntomodulin C-Terminal Antibody (antibody, V domains shown, In SPR it was captured as IgG by goat anti-mouse IgG; In the sandwich immunoassay it was biotin-labelled and held on streptavidin plates; also called capture antibody) VH: QVQVQQSGAELVMPGTSVKLSCKASGYNFTNYWLHWVKQRPGQGLEWIGELDPEYGFANYNQKFKGKATLTVDKSSSTAYMQLSSLTSEDSAVYYCSAGFMDYWGQGTSVTVSS VL: not shown | 0.083 | 0.00086 | 1e+07
Anti-Human Oxyntomodulin N-Terminal Antibody (antibody, V domains shown, In SPR it was captured as IgG by goat anti-mouse IgG; In the sandwich immunoassay it was ruthenium-labelled; also called detection antibody) VH: QIQLVQSGPELKKPGETVKISCKASGYTFTDYAFSWVKQAPGKGLKWMGWITTNTGEATYADDFKGRFAFSLETSASTAYLQISNLKNEDTATYFCARETEYGDSSWFGHWGQGTLVTVSA VL: DIVLTQSPASLAVSLGQRATISCRASESVDGWGNSFMHWYQQKPGQPPKLLIYLATYRVAGIPARFSGSGSRTDFTLTINPVEADDVATYYCMQSSEDPYTFGGGTKLEIKR | 0.15 | 0.001 | 7.2e+06

Source: patent publication US20240059770A1 (Eli Lilly, published 2024)
